Source: patent US20200199217A1

Legend:
Experiment in all cases: ELISA, yeast Fab supernatant
hu-IL-36β (human) = target: T1, hu-IL-36β (human)
T1 sequence: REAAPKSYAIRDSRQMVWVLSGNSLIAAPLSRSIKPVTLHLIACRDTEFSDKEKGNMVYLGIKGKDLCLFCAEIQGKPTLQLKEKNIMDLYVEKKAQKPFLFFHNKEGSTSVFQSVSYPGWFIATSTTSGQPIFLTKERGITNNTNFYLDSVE

hu-IL-36α (human) = hu-IL-36α (human) (UniProt Q9UHA7)
hu-IL-36γ (human) = hu-IL-36γ (human) (UniProt Q9NZH8)
Chain of hu-IL-36γ (human) (Q9NZH8 18-169 limits assumed): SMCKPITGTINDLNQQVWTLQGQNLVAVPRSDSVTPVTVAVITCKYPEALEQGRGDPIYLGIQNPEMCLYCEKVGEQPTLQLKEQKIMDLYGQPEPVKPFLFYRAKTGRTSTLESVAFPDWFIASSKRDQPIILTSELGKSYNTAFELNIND

Chain of hu-IL-36α (human) (Q9UHA7 6-158 limits assumed): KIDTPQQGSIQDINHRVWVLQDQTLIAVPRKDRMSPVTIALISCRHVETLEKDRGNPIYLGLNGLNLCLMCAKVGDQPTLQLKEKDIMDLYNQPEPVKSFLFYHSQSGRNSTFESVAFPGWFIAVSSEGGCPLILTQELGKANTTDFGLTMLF

B1: mAb2.0 Fab (Fab, V domains shown)
VH: QLQLQESGPGLVKPSETLSLTCTVSGGSISTSSYYWGWIRQPPGKGLEWIGSIYYTGNTYYNPSLKSRVTISVDTSKNQFSLKLSSVTAADTAVYYCARVRYGVGVPRYFDPWGQGTLVTVSS
VL: QSVLTQPPSVSGAPGQRVTISCTGSSSNIGAHYDVHWYQQLPGTAPKLLIYGNDNRPSGVPDRFSGSKSGTSASLAITGLQAEDEADYYCQSYDYSLSGYVFGGGTKLTVL
hu-IL-36β (human)
  ELISA OD450: 0.0604 OD450

B2: mAb4.0 Fab (Fab, V domains shown)
VH: QLQLQESGPGLVKPSETLSLTCTVSGGSIGSRSYYWGWIRQPPGKGLEWIGSIHYSGTTYYNPSLKSRVTISVDTSKNQFSLKLSSVTAADTAVYYCARVAPSYPRVFDYWGQGTLVTVSS
VL: QSVLTQPPSVSGAPGQRVTISCTGSSSNIGAGYDVHWYQQLPGTAPKLLIYGNRNRPSGVPDRFSGSKSGTSASLAITGLQAEDEADYYCQSYDYSLRVYVFGGGTKLTVL
hu-IL-36β (human)
  ELISA OD450: 0.0513 OD450

B3: mAb5.0 Fab (Fab, V domains shown)
VH: EVQLLESGGGLVQPGGSLRLSCAASGFTFSTYAMSWVRQAPGKGLEWVSGISGGSGYTYYADSVKGRFTISRDNSKNTLYLQMNSLRAEDTAVYYCARVVTYRDPPASFDYWGQGTLVTVSS
VL: QSVLTQPPSVSGAPGQRVTISCTGSSSNIGAHYDVHWYQQLPGTAPKLLIYGNDNRPSGVPDRFSGSKSGTSASLAITGLQAEDEADYYCQSYDYSLKAYVFGGGTKLTVL
hu-IL-36β (human)
  ELISA OD450: 0.129 OD450

B4: mAb6.0 Fab (Fab, V domains shown)
VH: QLQLQESGPGLVKPSETLSLTCTVSGGSITSSNYYWGWIRQPPGKGLEWIGSIDYTGSTYYNPSLKSRVTISVDTSKNQFSLKLSSVTAADTAVYYCARGKYYETYLGFDVWGQGTLVTVSS
VL: QSVLTQPPSVSGAPGQRVTISCTGSSSNIGAGYDVHWYQQLPGTAPKLLIYGNTNRPSGVPDRFSGSKSGTSASLAITGLQAEDEADYYCQSYDISLSGWVFGGGTKLTVL
hu-IL-36α (human)
  ELISA OD450: 0.0638 OD450
hu-IL-36γ (human)
  ELISA OD450: 0.0656 OD450

B5: mAb3.0 Fab (Fab, V domains shown)
VH: QLQLQESGPGLVKPSETLSLTCTVSGGSISSTSYYWGWIRQPPGKGLEWIGSIHYSGNTYYNPSLKSRVTISVDTSKNQFSLKLSSVTAADTAVYYCARVHYGGYIPRRFDHWGQGTLVTVSS
VL: QSVLTQPPSVSGAPGQRVTISCTGSSSNIGAGYDVHWYQQLPGTAPKLLIYGNTNRPSGVPDRFSGSKSGTSASLAITGLQAEDEADYYCQSYDYSLRGYVFGGGTKLTVL
hu-IL-36β (human)
  ELISA OD450: 0.11 OD450

B6: mAb1.0 Fab (Fab, V domains shown)
VH: QVQLVESGGGVVQPGRSLRLSCAASGFSFSAYAMHWVRQAPGKGLEWVAVISYDGTNEYYADSVKGRFTISRDNSKNTLYLQMNSLRAEDTAVYYCARGIRIFTSYFDSWGQGTLVTVSS
VL: QSVLTQPPSVSGAPGQRVTISCTGSSSNIGAHYDVHWYQQLPGTAPKLLIYSNNNRPSGVPDRFSGSKSGTSASLAITGLQAEDEADYYCQSYDYSLRGYVFGGGTKLTVL
hu-IL-36β (human)
  ELISA OD450: 0.0523 OD450

B7: mAb7.0 Fab (Fab, V domains shown)
VH: QVQLVESGGGVVQPGRSLRLSCAASGFTFSSYGMHWVRQAPGKGLEWVAVISYGGSERYYADSVKGRFTISRDNSKNTLYLQMNSLRAEDTAVYYCAREPWYSSRGWTGYGFDVWGQGTLVTVSS
VL: EIVLTQSPGTLSLSPGERATLSCRASQSVSSNYLAWYQQKPGQAPKLLIYSASSLQSGVPSRFSGSGSGTDFTLTISSLQPEDFATYYCQQTYSYPPTFGQGTKVEIK
hu-IL-36α (human)
  ELISA OD450: 0.0604 OD450
hu-IL-36γ (human)
  ELISA OD450: 0.0724 OD450

B8: mAb8.0 Fab (Fab, V domains shown)
VH: QVQLVQSGAEVKKPGSSVKVSCKASGGTFSNYAISWVRQAPGQGLEWMGGILPILGTVDYAQKFQGRVTITADESTSTAYMELSSLRSEDTAVYYCAREPWYRLGAFDVWGQGTLVTVSS
VL: DIQMTQSPSSLSASVGDRVTITCRASQTIYKYLNWYQQKPGKAPKLLIYAASSLQSGVPSRFSGSGSGTDFTLTISSLQPEDFATYYCQQYSSIPYTFGQGTKVEIK
hu-IL-36α (human)
  ELISA OD450: 0.0698 OD450
hu-IL-36γ (human)
  ELISA OD450: 0.073 OD450
